For test [1], the target named is monkey IL-23R-mouse Fc fusion protein (monkey; mouse). The test can be described thus: antigen ELISA, monkey IL-23R-mouse Fc immobilized, HRP anti-human IgG, chemiluminescence. Background: In an ELISA, binding on a coated surface is turned into a signal by an enzyme label.
Test [2] has as its target human IL-23R-mouse Fc fusion protein (human; mouse) (UniProt Q5VWK5). The experiment in a line: antigen ELISA, human IL-23R-mouse Fc immobilized, HRP anti-human IgG, chemiluminescence.
Test [3] concerns the target human IL-23R on Kit-225 cells (human) (UniProt Q5VWK5). The experiment in a line: cell-based or functional assay.

Some results are limits rather than exact numbers.

human IL-23R-mouse Fc fusion protein (human; mouse), sequence (Q5VWK5 24-353 L310P limits assumed): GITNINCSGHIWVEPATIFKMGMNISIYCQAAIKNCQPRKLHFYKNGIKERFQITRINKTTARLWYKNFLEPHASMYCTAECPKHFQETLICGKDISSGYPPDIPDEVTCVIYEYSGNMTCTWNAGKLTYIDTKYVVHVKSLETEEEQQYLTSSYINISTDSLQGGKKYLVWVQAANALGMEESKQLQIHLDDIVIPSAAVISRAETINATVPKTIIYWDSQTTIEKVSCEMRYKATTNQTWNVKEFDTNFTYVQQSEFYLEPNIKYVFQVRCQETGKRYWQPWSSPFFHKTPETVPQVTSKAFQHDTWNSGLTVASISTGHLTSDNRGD
human IL-23R on Kit-225 cells (human), sequence (Q5VWK5 24-629 L310P limits assumed): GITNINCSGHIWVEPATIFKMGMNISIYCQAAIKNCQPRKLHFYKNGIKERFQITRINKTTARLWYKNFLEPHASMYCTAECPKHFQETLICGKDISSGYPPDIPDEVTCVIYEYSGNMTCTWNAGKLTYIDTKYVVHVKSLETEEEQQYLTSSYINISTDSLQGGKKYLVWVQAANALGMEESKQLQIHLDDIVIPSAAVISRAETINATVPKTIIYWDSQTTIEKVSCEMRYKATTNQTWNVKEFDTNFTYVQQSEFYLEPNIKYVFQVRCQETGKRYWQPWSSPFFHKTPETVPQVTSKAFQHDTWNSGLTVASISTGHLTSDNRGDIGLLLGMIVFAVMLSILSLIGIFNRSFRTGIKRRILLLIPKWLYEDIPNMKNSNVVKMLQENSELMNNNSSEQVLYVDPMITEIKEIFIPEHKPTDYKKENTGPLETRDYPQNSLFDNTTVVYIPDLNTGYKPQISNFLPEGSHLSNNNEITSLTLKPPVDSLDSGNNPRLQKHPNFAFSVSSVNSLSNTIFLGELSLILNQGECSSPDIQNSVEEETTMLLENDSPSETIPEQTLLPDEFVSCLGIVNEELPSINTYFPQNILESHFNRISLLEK

B1: hum20D7 (antibody, from another filing, V domains shown)
VH: QVQLVQSGAEVKKPGASVKVSCKASGYTFTNYAMNWVRQAPGQGLEWMGWINTYTGEPTYSDDFKGRVTFTLDTSTSTAYMELRSLRSDDTAVYYCARGGGYDEDYFDYWGQGTLVTVSS
VL: DIVMTQSPLSLPVTPGEPASISCKSSQSLFNTINQKTYLAWYLQKPGQSPQLLIYFASTRESGVPDRFSGSGSGTDFTLKISRVEAEDVGVYYCQQHYDTPWTFGQGTKVEIKR
For B1, the EC50 in test [1] is above 10 µg/mL; in test [2] it was 0.0452 µg/mL. For the same molecule, the Human IL-23-inducible Kit-225 cell proliferation inhibitory activity, IC50 in test [3] stood at 0.0276 µg/mL.

As a reminder, the EC50 is the concentration giving half of the maximal effect.

Values taken from US20150126713A1.
